From US20160046928A1 (Bicycle, published 2016)
Starred links: 1 amine or outer side, 2 acyl side, 3 side chain; linkers in the order of their positions; H or OH if unused. Positions of bridges follow the written chain, without caps; N, C: chain ends. Non-standard residues stand in square brackets, D forms with d. TBMB = c1c(C[*:1])cc(C[*:3])cc1C[*:2]; NMeR = CN[C@@H](CCCNC(=N)N)C(=O)O

Biological target: kallikrein (UniProt P03952 20-638, limits assumed)
Assay: cell-based or functional assay

Sequence of kallikrein (P03952 20-638 limits assumed): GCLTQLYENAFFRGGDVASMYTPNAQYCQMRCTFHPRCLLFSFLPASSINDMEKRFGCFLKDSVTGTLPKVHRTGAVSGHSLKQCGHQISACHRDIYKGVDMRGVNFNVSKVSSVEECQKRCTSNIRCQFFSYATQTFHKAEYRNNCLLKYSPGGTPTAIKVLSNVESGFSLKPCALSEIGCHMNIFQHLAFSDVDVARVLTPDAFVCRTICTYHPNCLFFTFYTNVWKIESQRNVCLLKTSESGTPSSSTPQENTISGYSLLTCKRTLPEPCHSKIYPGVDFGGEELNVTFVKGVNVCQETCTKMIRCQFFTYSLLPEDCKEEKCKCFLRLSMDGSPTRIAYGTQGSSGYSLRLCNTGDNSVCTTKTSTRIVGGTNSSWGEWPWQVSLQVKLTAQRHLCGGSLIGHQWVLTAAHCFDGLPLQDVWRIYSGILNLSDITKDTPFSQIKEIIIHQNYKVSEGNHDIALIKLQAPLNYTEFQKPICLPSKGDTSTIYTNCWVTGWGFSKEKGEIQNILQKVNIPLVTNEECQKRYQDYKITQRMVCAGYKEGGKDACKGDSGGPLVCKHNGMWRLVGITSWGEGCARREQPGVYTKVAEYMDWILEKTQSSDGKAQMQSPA

| Binder | inhibition of kallikrein activity (IC50, substrate Z-Phe-Arg-amc, fluorescence) [µM] |
| --- | --- |
| H-ACSDRF[NMeR]NCPADEALCG-OH (linker 2-9-16 via TBMB) [H-ACSDRF-(NMeArg)-NCPADEALCG-OH (N-methyl-arginine variant of PK15), TBMB conjugate] | 3.1 |
| H-ACSDRFRNCPADEALCG-OH (linker 2-9-16 via TBMB; also: reduced peptide bond Y[CH2NH] between Phe6 and Arg7) [H-ACSDRF Y[CH2NH] RNCPADEALCG-OH (reduced peptide bond variant of PK15), TBMB conjugate] | 16.6 |
| H-ACSDR[dF]RNCPADEALCG-OH (linker 2-9-16 via TBMB) [H-ACSDRfRNCPADEALCG-OH (D-Phe variant of PK15), TBMB conjugate] | 4 |
